Results from the DeepSol protein solubility set.

Test: soluble on expression in E. coli; label from the status in PepcDB or PDB records

| Sequence | soluble on expression in E. coli |
| --- | --- |
| MGSDKIHHHHHHLCRKDASQPSMYDLHRLGWNSFQQLCLTIAREVLAQSVKSFLDSNDGGRDGAFCGTWTPTKNETMSGSFVIQCKFTSKPNALLAKEDIAAELPKIRRLTEKGLCDVYVLMTNAGVSGKQEERIAAELTSAGAKNVLILGGTWITDQIRENTRLRTLVPRVYGLGDLSQILDERAYEQARAVLDSLREDLAKVVMTSAYRNAVDALDRHGFVLLIGEPAAGKTTIASMLAMASADKWKSSVLRKR | not soluble |
| MGSDKIHHHHHHLFDRYEAGETAVLVHIDFSDDERREDLVELQLLVESAGARSVGVITGSRRAPDRKFFVGTGKAEELAAMVAATEAKVVIFNHALSPAQERNLERVCHCRVLDRTTLILDIFAQRARTHEGKLQVELAQLRHMSTRLIRGWTHLERQKGGIGMRGPGETQLETDRRLLRGRIKNINRRLDKVDKQREQSRRSRKRSDLATVSLVGYTNAGKSTLFNGLTSSDVYAADQLFATLDPTLRKLDLPDGAVILADTVGFIRHLPHDLVAAFKATLQETRQAELLLHIVDCADDNMQDNFDQVQDVLKEIDADEIPQLVVCNKIDLLEDFAPRIDYAEDGTPERVWLSAQKGQGFDLLLQAITELVGNIVLELTLKVPATGGHYIGQMYKLDVIEHKDYDDLGNCIVKIRLLDADWRRMIKQSQGELETFVFEASETDVIL | not soluble |
| MGSDKIHHHHHHLFDRYEAGETAVLVHIDFTDEGSREDLAELQLLVESAGARSVGVITGSRRAPDRKFFVGTGKAEELAAMVAATDANVVIFNHALSPAQERNLEHLCRCRVLDRTTLILDIFAQRARTHEGKLQVELAQLRHMSTRLVRGWTHLERQKGGIGLRGPGETQLETDRRLLRGRIKNINRRLEKVDKQREQSRRARQRSDMAAVSLVGYTNAGKSTLFNTLTSAEVYAADQLFATLDPTLRKLELPDGAAILADTVGFIRHLPHDLVAAFKATLQETREADLLLHVIDCADEKMRDNIEQVQAVLKEIDADEIPQLIVCNKIDLVEGIKPAIDRDDTGKPFRVWLSAQQNQGLDLLRQAVQELVGNVIAELTLKIPATAGHYLGQFYRLDAIQQKEYDDLGNCILSVRLPDADWRRLAKQSQGELETFIVDTATDRVVC | not soluble |
| MGSDKIHHHHHHLNILVTNDDGIMSPGIILLAEALSEDHEVLVVAPDVERSATGHAITIRTPLWAKEVKVGNKNIGYAINGTPADCVKLGLLAISDRKIDLVISGVNKGQNMGIDVLYSGTVSGALEGAVTDTPSIAVSSSDWSNPEYETAARFMVNFLKIYDVSKMPDFTALNINVPSIKYEELKGWKVTRQSRRRYKDYFEKRKDPYGNNYYWIFGEVVEDECSTDCDFNAVKSNFVSITPLHAIMTDKKYFDELKEISEGWSE | not soluble |
| MGSDKIHHHHHHLNQERFDYRTGILASPSEVDAAEWNALLAQQPQPTPFLRHEFLSALHATRCAVADTGWAPQFVTLTDPRTDKLVAAAPVYLKGHSYGEYVFDWAWADAYKRNGLPYYPKLLCAVPFTPVQGNRLLSADTHALRHLAATLMAFAEQADVSSLHVLFPTETEANALTEMGMMQREGVQFHWLNDGYRDFDDFLSTLEQKKRKNIRAERRKVHEAGVTMRRIRGEDIQDADWRFFSKCYRQTYREHFSSPYLNLDFFRMIGESMPENLLLVIAEYEGKPIASSLVVYQRDAKTGGTLYGRYWGALEHVPCLHFETAYYQPLEFCIEEKLGAFEGGAQGEHKMARGFLPTVTRSAHWLAHPAFADAVGHFLDNEKNSIHAYVDELREHNPFKG | not soluble |
| MGSDKIHHHHHHLNVYHASLEEAQADPRLKGLQGASPFERLDWLALLANECLDPARARLSVVTSGECMAALPWIEREGRIDALANWYSFFVSPLGDSALLSRIVEALPHGRAAFAPLPEEDARLLARAFRNAGWCTLAAPCDVNHVLPVEGRSFAQYWAERPGALRETVRRKSRKGEVSLRILTEFSPEDWEAYETIYRLSWKPGEGSPAFLRKWAEADGEAGRLRLGIAEIDGAAVAAQFWTVEGGTAYIHKLAHDERFRKSSPGTLLTAAMFEHVIDRDRVDLIDFGTGDDPYKRDWMDDVRSRWSVQAWRPGAVRHWPSLALALARTLAGQIMRPLVSRNGDG | not soluble |
| MGSDKIHHHHHHLPENAASLGCGAWKGDTVSIEAGGMNRRVGEIVGQVLARLRPKAKSLIITVYGDAISHHGGSAWLGSVINLVEPLGLNERIVRTSVFRLSKEAWLSSMQIGRRSYYRLTEMGRRRFEAAHNRIYHYNGKPWDGRWTLAVTNIDGMDAERRDSLRRDLGWLGFGQLASGVMVHPDPDQSAVRQALAEAGVQDRAVMMTAAAEDWVTPEALRDLIHTCWDLERLASDYNEFLDTFRPLWQVLSGNGDLDPQMCFVVRTLLMHGYRRALLRDPMLPDELLPANWPGTSARVLCRNLYRLVQAAAETHVMGMLETAEGPVPEAHPAYYTRFGGLQSAD | not soluble |
| MGSDKIHHHHHHLPNLQEIFKKDNFIAWDDKVYPSILNFGAPLPKPLPRIAPNNAPLARLFIEFLYYYSMFNFKENYIGARPVMVMDRRTSQNNMVRSSTNKEVCIQDPFDEHNPGRTVRTLNRIKDVMRSTYQKFLPVEGSEFTFPTLDDIINMSPEVPKPSRAEVRNFRAEATEVNRVGLGVYCRNSFV | not soluble |
| MGSDKIHHHHHHLRFIIVSGPPSAGKTAVMIHAIRHLLKDGIKVAACKIDCLKTSDDKNYRALGIPVAVGLSEYLCPDHFFVANLEEIYAWGSYYGTEVLILETAGLCHRCAPAIQGCLSICVIDNLSGIDTPQKVGPMLSTADVVLISKGDVVSQAEREVFRQRVEMVNPDAAVLSVNGLNGQGSLKLKKIIMESASVKRIEGQELRCSMPAAICSYCTGETMIGSSYQMGNVKKLDFGKF | not soluble |
| MGSDKIHHHHHHLTNLLVIGATGNIGQPLIRDLQDDPDVHLFAGVHNSEHAKQALNGLKVQVRRFDFLDPATFEQALADIDKVFFVRPPQLAKPKEDMYPFLDALVARHVKQVVFVSLLGVAHNPMTPHHQIEKRIVELGLPYTFIRPSFFMQNLNTTHQADIVGHRDLFVPAGHARTSFIDTRDIGATAAVILRDPAYIGQKLDITGAQALTYADAAQIMTMELGVPITYSKPSLWRFRKVMLQRGLPKNYVNVMVMLYLITQLGNAKTVTTTLPNVLGRPAISFEQYVHDYRAEFLPKPLS | not soluble |
| MGSDKIHHHHHHLTQLAQCSTSSISQSSIYLPYRDGQLHLRQLLPSAPDFSKTPILMLHGAMSNGRVFYSQSGRGLGCFLAKAGFVVYVLDTAGRGLSLPKIDRDSTLGQGEVIREQLPLVQQTILDLHQKACQEQTAQYDRKAVAPSQVHWCAHSWGGVLMASSLARYPELQQSVRSLLTFGSKRTIRVKSFKKWLMVDVFWNRLAPGLAMGQGYLAADKLRIGMDNESRASLVQSIDWVQGDWIDHDDGFDYAKAAKRADWPPAWFISGLNDTVLGHPEDVADMVEECGFKRVKSTLLSKENGFKHDYGHADMLTHLDATSDHFPKISDWYLSFDLAVLNG | not soluble |
| MGSDKIHHHHHHLYVPLLIRQQYIRSGPDYRFSEPVSFLDIKQTFGFSHVRVGRWVTREESRIAANLVFDSLADLAFILKLPPLTLGLRQTLSLAFGHGGQKGVQAHYAPATRELALAKNAGAGALAHEFWHAFDHYIAPKAFNLSEGHFLCASDLWLADSPLIKHPLNLRLSEIFKVTLLSPDGKEPSDYVRRALALDKRYGTRYFSQPTEMMARAFEACIESYRDISNPYLVSGTSFSAMAKEGAYPDELHRQRIFTALLDYFEPLGIALAK | not soluble |
| MGSDKIHHHHHHMAATLKLSQLISALSYALDITEGQPEGHCVRSCWIGMHIGRALGLAPQELWDLYYAILLKDLGCSSNAARICELYRTDDRSFKQDFKQVGASLPQMLGFVFSHTGTHAAGWRERAASVVQVLRRGKEMADELINTRCHRGADIARQLRFNENVANGIQYLDEHWDGSGRPLGLQRDAIPLNARIALLAQVIDVFHVTHGRHAALDEAVRRGGGWFDPELVAAFRGASRDTAFWQRLESDDIERAVLALEPAQCTVPLDEDYMDEIAEGFGQVVDSKSPFTAGHSQRVGHYADRIGEELGLSPQRRRWLKRGALLHDVGKLGVSNTILDKPGKLTPEEWEAVKLHASHTETILGRIESFAELAKVAGAHHERLDGKGYPRGLMASEIALETRVITTADIFDAIHAARPYHPENPVPETLDIMRKNLGSALDPACFEALEAVLREEDALESDAICLT | not soluble |
| MGSDKIHHHHHHMADKKRLDQLVLERGLVESREKAKVLILAGKVLVNGERVTKASKLVPEDANVELLEEPKYVSRGGYKLESAFESFKIDVSGKVACDIGASTGGFTDFLLQRGAKKVYAVDVGYGQLHWKLRNDPRVVVMEKVNARYLNPDDLGEKVDVVTCDVSFISLKKIIPAISRILKNIGDAVLLVKPQFEAPRKFVKKGIVKDPGVHLEVLEEIRKSLIENGFVVKGCCFSKIKGTEGNIEYFFWVKKEGENAEIDLRKIVEEAWRFFGERER | not soluble |
| MGSDKIHHHHHHMADRIEFVKNYSDLSTNKGFQFEFYCDRCGSGYRTRFKPSITGTVTGVLDTAGSLLGGLFSSAADVSERVRSASWEKSHDDAFEDACNELKPDFIQCPRCSSWVCRQKCWNKKKGLCKECAPDLGVEMAAAQASKSVEEIWAHAAMAEEDKKLGLENWRENVRASCPECEAPLASNAKFCPECGAKLKAAQFCPSCGAKVNPGSKFCAECGEKF | not soluble |
| MGSDKIHHHHHHMAEFFPEIPKIQFEGKESTNPLAFRFYDPNEVIDGKPLKDHLKFSVAFWHTFVNEGRDPFGDPTAERPWNRFSDPMDKAFARVDALFEFCEKLNIEYFCFHDRDIAPEGKTLRETNKILDKVVERIKERMKDSNVKLLWGTANLFSHPRYMHGAATTCSADVFAYAAAQVKKALEITKELGGEGYVFWGGREGYETLLNTDLGLELENLARFLRMAVEYAKKIGFTGQFLIEPKPKEPTKHQYDFDVATAYAFLKNHGLDEYFKFNIEANHATLAGHTFQHELRMARILGKLGSIDANQGDLLLGWDTDQFPTNIYDTTLAMYEVIKAGGFTKGGLNFDAKVRRASYKVEDLFIGHIAGMDTFALGFKIAYKLAKDGVFDKFIEEKYRSFKEGIGKEIVEGKTDFEKLEEYIIDKEDIELPSGKQEYLESLLNSYIVKTIAELR | not soluble |
| MGSDKIHHHHHHMAEKKEFVVGIDLGTTNSVIAWMKPDGTVEVIPNAEGSRVTPSVVAFTKSGEILVGEPAKRQMILNPERTIKSIKRKMGTDYKVRIDDKEYTPQEISAFILKKLKNDAEAYLGGEIKKAVITCPAYFNDAQRQATKEAGIIAGLEVLRIINEPTAAALAYGLDKAGKEEKVLVYDLGGGTFDVSILEIGEGVIEVIATAGNNHLGGDDFDQRLIDWMAEEFKKQHGIDLREDRQALQRLRDAAEKAKIELSTKMETDVSLPFIAVSPSGQPLHLEMRITRSLFESLTRDLVEMTRGPIEQALNDAKLSPQDIDEIILVGGMTRVPMVQRFIKEFFGKEPNKSVNPDEAVAIGAAIQAAILAGTEGAKGRDIVLVDVTPLTLGIEVKGGLFEPIIPRNTKIPVRKSKIFTTVEDGQTEVEIRVYQGERPIARENIFLGSFKLVGIPPAPRGVPQIEVTFDIDSDGIVHVSAKDLGSGKEQSMVVTGRHKLSEDEIKRMIEDAKRYEEQDKRLKEEIELKNRADDLAYSVEKTLKEHGDKIPADLKSRLEDMIRELRDAINRNDIPKVKMLFDDLQKESMKIGEYLYKSATGGETSNQ | not soluble |
| MGSDKIHHHHHHMAEQPLIGKTILTTRAAGQSSPFAAQLRAAGAAVIEMPTLEIGPPSSWLPLDEAIAAIADFDWLILASANAVEAVQQRLAAQQKSWSDVPCAIAVVGQKTAQVLAAQGGKADYIPPEFIAESLVEHFPQPVAGQRLLFPRVETGGREQITQALQSQGAIVVEVPAYESRCPSQIPDDALIALRQAHLNLISFTSSKTVRNFCQLMASNLGVDWSARISGVAIASIGPQTSITCQELLGRVEVEAQEYTLDGLLLAIEQWARQTT | not soluble |
